From the RNAGym collection of RNA variant scans (doi:10.7554/elife.80360) come the findings set out here.

To fix the notation:
B1: CPEB3 Ribozyme (parent)
chain: GGGGGCCACAGCAGAAGCGUUCACGUCGCGGCCCCUGUCAGAUUCUGGUGAAUCUGCGAAUUCUGCUGU

The variants in this data set derive from B1. The data set can be described thus: self-cleavage, relative activity (ratio to wild type); higher = more cleavage; co-transcriptional.
On to GGGGGCCACAGCAGAAGCGUUCACGUCGCGGCCCAUGUCAGAUUCUGGUGAAUCUGCGAAUGCUGCUGU [C35A U62G], for which the self-cleavage was 0.21.

Regarding GGGGGCCACAGCAGAAGCGUUCACGUCGCGGCCCAUGUCAGAUUCUGGUGAAUCUGCGAAUACUGCUGU [C35A U62A], the self-cleavage came to 0.306.

As for GGGGGCCACAGCAGAAGCGUUCACGUCGCGGCCCAUGUCAGAUUCUGGUGAAUCUGCGAAUCCUGCUGU [C35A U62C], the self-cleavage was 0.242.

Consider GGGGGCCACAGCAGAAGCGUUCACGUCGCGGCCCACGUCAGAUUCUGGUGAAUCUGCGAAUUCUGCUGU [C35A U36C], for which the self-cleavage turned out to be 0.245.

On to GGGGGCCACAGCAGAAGCGUUCACGUCGCGGCCCAGGUCAGAUUCUGGUGAAUCUGCGAAUUCUGCUGU [C35A U36G], for which the self-cleavage is 0.232.

Take GGGGGCCACAGCAGAAGCGUUCACGUCGCGGCCCAUGUCAGAUUCUGGCGAAUCUGCGAAUUCUGCUGU [C35A U49C]: the self-cleavage was 0.342.

Take GGGGGCCACAGCAGAAGCGUUCACGUCGCGGCCCAUGUCAGAUUCUGGAGAAUCUGCGAAUUCUGCUGU [C35A U49A]: the self-cleavage turned out to be 0.303.

Take GGGGGCCACAGCAGAAGCGUUCACGUCGCGGCCCAUGUCAGAUUCUGGGGAAUCUGCGAAUUCUGCUGU [C35A U49G]: the self-cleavage is 0.26.

On to GGGGGCCACAGCAGAAGCGUUCACGUCGCGGCCCAUGUCAGAUUCUGGUGAAUCUGCGAAUUCUUCUGU [C35A G65U], for which the self-cleavage was found to be 0.184.

As to GGGGGCCACAGCAGAAGCGUUCACGUCGCGGCCCAUGUCAGAUUCUGGUGAAUCUGCGAAUUCUGCUCU [C35A G68C], the self-cleavage came out at 0.345.

With GGGGGCCACAGCAGAAGCGUUCACGUCGCGGCCCAUGUCAGAUUCUGGUGAAUCUGCGAAUUCUGCUUU [C35A G68U], the self-cleavage amounted to 0.394.

Regarding GGGGGCCACAGCAGAAGCGUUCACGUCGCGGCCCAUGUCAGAUUCUGGUGAAUCGGCGAAUUCUGCUGU [C35A U55G], the self-cleavage was found to be 0.196.

With GGGGGCCACAGCAGAAGCGUUCACGUCGCGGCCCAUGUCAGAUUCUGGUGAAUCCGCGAAUUCUGCUGU [C35A U55C], the self-cleavage turned out to be 0.357.

As to GGGGGCCACAGCAGAAGCGUUCACGUCGCGGCCCAUGUCAGAUUCUGGUGAAUCAGCGAAUUCUGCUGU [C35A U55A], the self-cleavage was 0.244.

With GGGGGCCACAGCAGAAGCGUUCACGUCGCGGCCCAUGUCAGAUUCUGGUGAAUCUGCGAAUUCUGCUGA [C35A U69A], the self-cleavage was 0.358.

For the variant GGGGGCCACAGCAGAAGCGUUCACGUCGCGGCCCAUGUCAGAUUCUGGUGAAUCUGCGAAUUCUGCUGC [C35A U69C], the self-cleavage is 0.417.

As to GGGGGCCACAGCAGAAGCGUUCACGUCGCGGCCCAUGUCAGAUUCUGGUGAAUCUGCGAAAUCUGCUGU [C35A U61A], the self-cleavage was found to be 0.231.

For GGGGGCCACAGCAGAAGCGUUCACGUCGCGGCCCAUGUCAGAUUCUGGUGAAUCUGCGAAGUCUGCUGU [C35A U61G], the self-cleavage was 0.288.

Consider GGGGGCCACAGCAGAAGCGUUCACGUCGCGGCCCAUGUCAGAUUCUGGUGAAUCUGCGAAUUCAGCUGU [C35A U64A], for which the self-cleavage amounted to 0.205.

Consider GGGGGCCACAGCAGAAGCGUUCACGUCGCGGCCCAUGUCAGAUUCUGGUGAAUCUGCGAAUUCCGCUGU [C35A U64C], for which the self-cleavage was 0.276.

Turning to GGGGGCCACAGCAGAAGCGUUCACGUCGCGGCCCAUGUCAGAUUCUGGUGAAUCUGCGAAUUCGGCUGU [C35A U64G], the self-cleavage was 0.318.

Take GGGGGCCACAGCAGAAGCGUUCACGUCGCGGCCCAUGUCAGAUUCUGGUGAAUCUGCGAAUUCUGCCGU [C35A U67C]: the self-cleavage came to 0.324.

On to GGGGGCCACAGCAGAAGCGUUCACGUCGCGGCCCAUGUCAGAUUCUGGUGAAGCUGCGAAUUCUGCUGU [C35A U53G], for which the self-cleavage worked out at 0.24.

Consider GGGGGCCACAGCAGAAGCGUUCACGUCGCGGCCCAUGUCAGAUUCUGGUGAACCUGCGAAUUCUGCUGU [C35A U53C], for which the self-cleavage turned out to be 0.225.

With GGGGGCCACAGCAGAAGCGUUCACGUCGCGGCCCAUGUCAGAUUCUGGUGAAACUGCGAAUUCUGCUGU [C35A U53A], the self-cleavage was 0.266.

For the variant GGGGGCCACAGCAGAAGCGUUCACGUCGCGGCCCAUGUCAGAAUCUGGUGAAUCUGCGAAUUCUGCUGU [C35A U43A], the self-cleavage was 0.185.

With GGGGGCCACAGCAGAAGCGUUCACGUCGCGGCCCAUGUCAGAGUCUGGUGAAUCUGCGAAUUCUGCUGU [C35A U43G], the self-cleavage was found to be 0.227.

Regarding GGGGGCCACAGCAGAAGCGUUCACGUCGCGGCCCAUGUCAGACUCUGGUGAAUCUGCGAAUUCUGCUGU [C35A U43C], the self-cleavage worked out at 0.264.

Take GGGGGCCACAGCAGAAGCGUUCACGUCGCGGCCCAUGUCAGAUUCAGGUGAAUCUGCGAAUUCUGCUGU [C35A U46A]: the self-cleavage is 0.268.

As for GGGGGCCACAGCAGAAGCGUUCACGUCGCGGCCCAUGUCAGAUUCGGGUGAAUCUGCGAAUUCUGCUGU [C35A U46G], the self-cleavage worked out at 0.356.

As to GGGGGCCACAGCAGAAGCGUUCACGUCGCGGCCCAUGUCAGAUCCUGGUGAAUCUGCGAAUUCUGCUGU [C35A U44C], the self-cleavage was found to be 0.277.

For the variant GGGGGCCACAGCAGAAGCGUUCACGUCGCGGCCCAUGCCAGAUUCUGGUGAAUCUGCGAAUUCUGCUGU [C35A U38C], the self-cleavage came out at 0.256.

With GGGGGCCACAGCAGAAGCGUUCACGUCGCGGCCCAUGACAGAUUCUGGUGAAUCUGCGAAUUCUGCUGU [C35A U38A], the self-cleavage turned out to be 0.279.

In the case of GGGGGCCACAGCAGAAGCGUUCACGUCGCGGCCCGUGUCAGAUUCUGGUGCAUCUGCGAAUUCUGCUGU [C35G A51C], the self-cleavage was determined as 0.426.

For GGGGGCCACAGCAGAAGCGUUCACGUCGCGGCCCGUGUCAGGUUCUGGUGAAUCUGCGAAUUCUGCUGU [C35G A42G], the self-cleavage came out at 0.503.

With GGGGGCCACAGCAGAAGCGUUCACGUCGCGGCCCGUGUCAGUUUCUGGUGAAUCUGCGAAUUCUGCUGU [C35G A42U], the self-cleavage stood at 0.308.

Turning to GGGGGCCACAGCAGAAGCGUUCACGUCGCGGCCCGUGUCCGAUUCUGGUGAAUCUGCGAAUUCUGCUGU [C35G A40C], the self-cleavage was 0.225.

As to GGGGGCCACAGCAGAAGCGUUCACGUCGCGGCCCGUGUCGGAUUCUGGUGAAUCUGCGAAUUCUGCUGU [C35G A40G], the self-cleavage was 0.394.

As for GGGGGCCACAGCAGAAGCGUUCACGUCGCGGCCCGUGUCUGAUUCUGGUGAAUCUGCGAAUUCUGCUGU [C35G A40U], the self-cleavage is 0.261.
